Data as given in patent publication US20160024487.

Experiments:
[1] = tested on: T1, Lys(Dnp)-ATNATX4X3PRIVGG-Lys(Abz), X4 = E, X3 = H
T1 sequence: KATNATEHPRIVGGK

[2] = tested on: T2, Lys(Dnp)-ATNATX4X3PRIVGG-Lys(Abz), X4 = N, X3 = V
T2 sequence: KATNATNVPRIVGGK

[3] = tested on: T3, Lys(Dnp)-ATNATX4X3PRIVGG-Lys(Abz), X4 = S, X3 = I
T3 sequence: KATNATSIPRIVGGK

[4] = tested on: T4, Lys(Dnp)-ATNATX4X3PRIVGG-Lys(Abz), X4 = T, X3 = A
T4 sequence: KATNATTAPRIVGGK

[5] = tested on: T5, Lys(Dnp)-ATNATX4X3PRIVGG-Lys(Abz), X4 = K, X3 = F
T5 sequence: KATNATKFPRIVGGK

[6] = tested on: T6, Lys(Dnp)-ATNATX4X3PRIVGG-Lys(Abz), X4 = H, X3 = Y
T6 sequence: KATNATHYPRIVGGK

[7] = tested on: T7, Lys(Dnp)-ATNATX4X3PRIVGG-Lys(Abz), X4 = Q, X3 = V
T7 sequence: KATNATQVPRIVGGK

[8] = tested on: T8, Lys(Dnp)-ATNATX4X3PRIVGG-Lys(Abz), X4 = N, X3 = G
T8 sequence: KATNATNGPRIVGGK

[9] = tested on: T9, Lys(Dnp)-ATNATX4X3PRIVGG-Lys(Abz), X4 = N, X3 = S
T9 sequence: KATNATNSPRIVGGK

[10] = tested on: T10, Lys(Dnp)-ATNATX4X3PRIVGG-Lys(Abz), X4 = N, X3 = Y
T10 sequence: KATNATNYPRIVGGK

[11] = tested on: T11, Lys(Dnp)-ATNATX4X3PRIVGG-Lys(Abz), X4 = H, X3 = R
T11 sequence: KATNATHRPRIVGGK

[12] = tested on: T12, Lys(Dnp)-ATNATX4X3PRIVGG-Lys(Abz), X4 = S, X3 = V
T12 sequence: KATNATSVPRIVGGK

[13] = tested on: T13, Lys(Dnp)-ATNATX4X3PRIVGG-Lys(Abz), X4 = S, X3 = P
T13 sequence: KATNATSPPRIVGGK

[14] = tested on: T14, Lys(Dnp)-ATNATX4X3PRIVGG-Lys(Abz), X4 = M, X3 = E
T14 sequence: KATNATMEPRIVGGK

[15] = tested on: T15, Lys(Dnp)-ATNATX4X3PRIVGG-Lys(Abz), X4 = N, X3 = K
T15 sequence: KATNATNKPRIVGGK

[16] = tested on: T16, Lys(Dnp)-ATNATX4X3PRIVGG-Lys(Abz), X4 = H, X3 = S
T16 sequence: KATNATHSPRIVGGK

[17] = tested on: T17, Lys(Dnp)-ATNATX4X3PRIVGG-Lys(Abz), X4 = Q, X3 = L
T17 sequence: KATNATQLPRIVGGK

[18] = tested on: T18, Lys(Dnp)-ATNATX4X3PRIVGG-Lys(Abz), X4 = T, X3 = I
T18 sequence: KATNATTIPRIVGGK

[19] = tested on: T19, Lys(Dnp)-ATNATX4X3PRIVGG-Lys(Abz), X4 = V, X3 = L
T19 sequence: KATNATVLPRIVGGK

[20] = tested on: T20, Lys(Dnp)-ATNATX4X3PRIVGG-Lys(Abz), X4 = S, X3 = W
T20 sequence: KATNATSWPRIVGGK

[21] = tested on: T21, Lys(Dnp)-ATNATX4X3PRIVGG-Lys(Abz), X4 = T, X3 = E
T21 sequence: KATNATTEPRIVGGK

[22] = tested on: T22, Lys(Dnp)-ATNATX4X3PRIVGG-Lys(Abz), X4 = H, X3 = A
T22 sequence: KATNATHAPRIVGGK

[23] = tested on: T23, Lys(Dnp)-ATNATX4X3PRIVGG-Lys(Abz), X4 = T, X3 = V
T23 sequence: KATNATTVPRIVGGK

[24] = tested on: T24, Lys(Dnp)-ATNATX4X3PRIVGG-Lys(Abz), X4 = D, X3 = G
T24 sequence: KATNATDGPRIVGGK

[25] = tested on: T25, Lys(Dnp)-ATNATX4X3PRIVGG-Lys(Abz), X4 = H, X3 = Q
T25 sequence: KATNATHQPRIVGGK

[26] = tested on: T26, Lys(Dnp)-ATNATX4X3PRIVGG-Lys(Abz), X4 = P, X3 = E
T26 sequence: KATNATPEPRIVGGK

[27] = tested on: T27, Lys(Dnp)-ATNATX4X3PRIVGG-Lys(Abz), X4 = Y, X3 = I
T27 sequence: KATNATYIPRIVGGK

[28] = tested on: T28, Lys(Dnp)-ATNATX4X3PRIVGG-Lys(Abz), X4 = G, X3 = I
T28 sequence: KATNATGIPRIVGGK

[29] = tested on: T29, Lys(Dnp)-ATNATX4X3PRIVGG-Lys(Abz), X4 = S, X3 = H
T29 sequence: KATNATSHPRIVGGK

[30] = tested on: T30, Lys(Dnp)-ATNATX4X3PRIVGG-Lys(Abz), X4 = Q, X3 = T
T30 sequence: KATNATQTPRIVGGK

[31] = tested on: T31, Lys(Dnp)-ATNATX4X3PRIVGG-Lys(Abz), X4 = P, X3 = N
T31 sequence: KATNATPNPRIVGGK

[32] = tested on: T32, Lys(Dnp)-ATNATX4X3PRIVGG-Lys(Abz), X4 = F, X3 = D
T32 sequence: KATNATFDPRIVGGK

[33] = tested on: T33, Lys(Dnp)-ATNATX4X3PRIVGG-Lys(Abz), X4 = N, X3 = Q
T33 sequence: KATNATNQPRIVGGK

[34] = tested on: T34, Lys(Dnp)-ATNATX4X3PRIVGG-Lys(Abz), X4 = T, X3 = G
T34 sequence: KATNATTGPRIVGGK

[35] = tested on: T35, Lys(Dnp)-ATNATX4X3PRIVGG-Lys(Abz), X4 = S, X3 = M
T35 sequence: KATNATSMPRIVGGK

[36] = tested on: T36, Lys(Dnp)-ATNATX4X3PRIVGG-Lys(Abz), X4 = A, X3 = E
T36 sequence: KATNATAEPRIVGGK

[37] = tested on: T37, Lys(Dnp)-ATNATX4X3PRIVGG-Lys(Abz), X4 = K, X3 = D
T37 sequence: KATNATKDPRIVGGK

[38] = tested on: T38, Lys(Dnp)-ATNATX4X3PRIVGG-Lys(Abz), X4 = Y, X3 = D
T38 sequence: KATNATYDPRIVGGK

[39] = tested on: T39, Lys(Dnp)-ATNATX4X3PRIVGG-Lys(Abz), X4 = N, X3 = F
T39 sequence: KATNATNFPRIVGGK

Work on Human plasma purified Factor Xa yielded an FXa kcat/KM [1] of 7.7 M⁻¹ s⁻¹, an FXa kcat/KM [2] of 17 M⁻¹ s⁻¹ and an FXa kcat/KM [3] of 55 M⁻¹ s⁻¹. For the same substance, the FXa kcat/KM [4] was 20 M⁻¹ s⁻¹, the FXa kcat/KM [5] was 35 M⁻¹ s⁻¹ and the FXa kcat/KM [6] was 41 M⁻¹ s⁻¹. It also gave an FXa kcat/KM [7] of 430 M⁻¹ s⁻¹, an FXa kcat/KM [8] of 9.2 M⁻¹ s⁻¹ and an FXa kcat/KM [9] of 16 M⁻¹ s⁻¹. The FXa kcat/KM [10] was 15 M⁻¹ s⁻¹, the FXa kcat/KM [11] was 140 M⁻¹ s⁻¹ and the FXa kcat/KM [12] was 38 M⁻¹ s⁻¹. The FXa kcat/KM [13] was 13 M⁻¹ s⁻¹, the FXa kcat/KM [14] was 600 M⁻¹ s⁻¹ and the FXa kcat/KM [15] was 14 M⁻¹ s⁻¹. For the same substance, the FXa kcat/KM [16] was 60 M⁻¹ s⁻¹, the FXa kcat/KM [17] was 480 M⁻¹ s⁻¹ and the FXa kcat/KM [18] was 63 M⁻¹ s⁻¹. For the same substance, the FXa kcat/KM [19] was 330 M⁻¹ s⁻¹, the FXa kcat/KM [20] was 43 M⁻¹ s⁻¹ and the FXa kcat/KM [21] was 15 M⁻¹ s⁻¹. For the same substance, the FXa kcat/KM [22] was 53 M⁻¹ s⁻¹, the FXa kcat/KM [23] was 20 M⁻¹ s⁻¹ and the FXa kcat/KM [24] was 5.8 M⁻¹ s⁻¹. The FXa kcat/KM [25] was 160 M⁻¹ s⁻¹, the FXa kcat/KM [26] was 1000 M⁻¹ s⁻¹ and the FXa kcat/KM [27] was 66 M⁻¹ s⁻¹. The FXa kcat/KM [28] was 88 M⁻¹ s⁻¹, the FXa kcat/KM [29] was 24 M⁻¹ s⁻¹ and the FXa kcat/KM [30] was 920 M⁻¹ s⁻¹. It also gave an FXa kcat/KM [31] of 580 M⁻¹ s⁻¹, an FXa kcat/KM [32] of 63 M⁻¹ s⁻¹ and an FXa kcat/KM [33] of 27 M⁻¹ s⁻¹. It also gave an FXa kcat/KM [34] of 21 M⁻¹ s⁻¹, an FXa kcat/KM [35] of 46 M⁻¹ s⁻¹ and an FXa kcat/KM [36] of 180 M⁻¹ s⁻¹. It also gave an FXa kcat/KM [37] of 45 M⁻¹ s⁻¹, an FXa kcat/KM [38] of 36 M⁻¹ s⁻¹ and an FXa kcat/KM [39] of 14 M⁻¹ s⁻¹.
